Patent US6458590 (US Dept. of Health and Human Services, dated 2002)

B1: human osteopontin (purified hOPN) (ligand)
chain: not shown
modifications: radioiodinated (125I, Chloramine-T method) when used as tracer; labelled residues not stated; the natural protein is described as a glycosylated phosphoprotein

Columns and labels:
[1] = target: T1, αvβ3 integrin on human coronary artery smooth muscle cells (CASMCs) (human, UniProt P06756 31-1048; P05106 27-788); assay: 125I-OPN binding to sub-confluent CASMCs, displaced by unlabeled OPN, 37 °C 3 h; Scatchard analysis (LIGAND program)
T1 construct: whole, on cells; Endogenous receptor on sub-confluent cultured human CASMCs (Clonetics); It was identified as the ~300 kD crosslinked band by immunoprecipitation with an αvβ3 integrin antibody; also called approximately 300 kD cell surface protein on CASMCs
T1 sequence (P06756 31-1048, chain 1 of 2): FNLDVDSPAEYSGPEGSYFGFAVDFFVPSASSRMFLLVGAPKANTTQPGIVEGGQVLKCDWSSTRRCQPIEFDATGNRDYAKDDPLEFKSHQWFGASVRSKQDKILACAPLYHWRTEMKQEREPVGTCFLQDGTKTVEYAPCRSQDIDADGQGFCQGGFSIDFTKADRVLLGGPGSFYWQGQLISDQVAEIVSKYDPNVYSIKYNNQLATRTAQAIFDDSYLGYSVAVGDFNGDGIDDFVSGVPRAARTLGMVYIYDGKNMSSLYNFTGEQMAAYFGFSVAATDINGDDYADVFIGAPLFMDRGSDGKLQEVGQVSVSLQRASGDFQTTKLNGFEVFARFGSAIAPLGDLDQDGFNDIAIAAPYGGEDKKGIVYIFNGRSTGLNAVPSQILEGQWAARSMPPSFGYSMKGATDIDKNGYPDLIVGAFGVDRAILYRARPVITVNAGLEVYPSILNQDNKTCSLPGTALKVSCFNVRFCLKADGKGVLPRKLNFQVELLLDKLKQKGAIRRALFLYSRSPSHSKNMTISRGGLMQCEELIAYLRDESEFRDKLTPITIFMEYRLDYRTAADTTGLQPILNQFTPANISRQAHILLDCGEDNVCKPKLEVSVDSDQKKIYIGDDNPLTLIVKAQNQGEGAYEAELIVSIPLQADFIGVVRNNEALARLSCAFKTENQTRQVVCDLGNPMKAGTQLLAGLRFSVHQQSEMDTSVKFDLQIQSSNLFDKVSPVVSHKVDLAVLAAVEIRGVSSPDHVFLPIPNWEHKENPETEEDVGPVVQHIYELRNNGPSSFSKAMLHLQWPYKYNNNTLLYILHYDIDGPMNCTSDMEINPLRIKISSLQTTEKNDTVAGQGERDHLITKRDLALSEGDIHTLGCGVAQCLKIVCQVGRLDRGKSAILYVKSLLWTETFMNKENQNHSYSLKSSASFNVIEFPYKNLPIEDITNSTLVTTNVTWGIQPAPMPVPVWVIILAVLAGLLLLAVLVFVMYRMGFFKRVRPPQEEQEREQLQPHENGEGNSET
T1 sequence (P05106 27-788, chain 2 of 2): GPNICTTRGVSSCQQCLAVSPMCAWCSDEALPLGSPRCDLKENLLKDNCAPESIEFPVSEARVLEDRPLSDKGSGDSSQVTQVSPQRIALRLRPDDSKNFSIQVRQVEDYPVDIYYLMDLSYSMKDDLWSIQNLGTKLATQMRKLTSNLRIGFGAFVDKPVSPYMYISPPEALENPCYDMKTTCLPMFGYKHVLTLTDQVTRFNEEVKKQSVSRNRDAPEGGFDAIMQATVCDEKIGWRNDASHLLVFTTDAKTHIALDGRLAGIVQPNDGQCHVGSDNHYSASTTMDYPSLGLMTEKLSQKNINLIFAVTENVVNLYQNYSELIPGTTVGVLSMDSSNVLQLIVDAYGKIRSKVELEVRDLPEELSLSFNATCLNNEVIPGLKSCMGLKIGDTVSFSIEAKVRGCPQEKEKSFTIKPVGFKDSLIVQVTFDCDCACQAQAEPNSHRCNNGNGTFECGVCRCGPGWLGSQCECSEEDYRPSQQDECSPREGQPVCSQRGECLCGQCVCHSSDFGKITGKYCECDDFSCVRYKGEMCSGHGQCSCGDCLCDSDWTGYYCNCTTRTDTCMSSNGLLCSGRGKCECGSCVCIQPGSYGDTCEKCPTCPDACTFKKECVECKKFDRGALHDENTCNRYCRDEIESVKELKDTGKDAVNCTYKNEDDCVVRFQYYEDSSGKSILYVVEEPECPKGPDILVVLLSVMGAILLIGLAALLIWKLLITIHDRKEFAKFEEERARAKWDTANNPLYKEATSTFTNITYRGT
Experimental: The radioactivity was measured by gamma counter and the specific binding was calculated by subtracting the non-specific binding from the total binding.

[2] = target: T1, αvβ3 integrin on human coronary artery …; assay: competition with 125I-OPN in affinity crosslinking on CASMCs; GRGDS at 1 µM
Experimental: After washing, the cells were incubated with 0.20 mM DSS in 1 ml HBSS, pH 7.6 at 37° C. for 30 min. The cells were scraped, collected by centrifugation and lysed in 40 µl of 1% Triton X-100 solution containing 1 mM PMSF, 20 µg/ml leupeptin and 2 mM EDTA.

Row | Binder | Kd [1] [nM] | binding result [2]
1 | B1 | 1 | 
2 | GRGDS (also called GRGDS peptide) [Gly-Arg-Gly-Asp-Ser (GRGDS) oligopeptide] |  | binds
